Laboratory results taken from publication PMC10810746.

Biological target: RbcL (large subunit of form I ribulose 1,5-bisphosphate carboxylase oxygenase) (Synechococcus sp. PCC 7335)
Test: cryo-EM structure; single-particle cryo-EM of form I Rubisco found in the same fraction; 2.35 Å, D4 symmetry

RbcL (large subunit of form I ribulose 1,5-bisphosphate carboxylase oxygenase) (enzyme)
stoichiometry N: 8
